Measurements reported in article PMC9603430, “Folding Mechanism and Aggregation Propensity of the KH0 Domain of FMRP and Its R138Q Pathological Variant” (International Journal of Molecular Sciences, 2022).

Molecular target: the molecule itself
Test: thioflavin T fluorescence; 20 μM protein pre-incubated at 70 °C for 10 min, stoichiometric ThT, 20 mM sodium phosphate pH 7.2, 100 mM NaCl; self-association into fibrillar aggregates

B1: KH0 domain of FMRP, R138Q pathological variant, res 122-205 (domain or fragment)
chain: not shown
notes: KH0 domain of human FMRP, residues 122-205, Uniprot Q06787, with the missense mutation R138Q found in FXS patients; Made by site-directed mutagenesis of the KH0 construct; the histidine tag was removed by thrombin for the fibrillation/aggregation experiments; also called KH0-R138Q; variant protein; source: E. coli BL-21 (DE3), purified (HisTrap FF, thrombin cleavage, Superdex75 size exclusion)
B1: binds.
